Assays:
[1] = target: T1, hFc-tagged human 4-1BB extracellular domain protein (4-1BB-hFc) (human, UniProt Q07011 24-186, limits assumed); experiment: ELISA: human 4-1BB-hFc coated at 1.0 µg/mL, antibody titrated, HRP secondary antibody, OD450
T1 construct: also called immunogen A; 4-1BB^ECD-hFc; not shown: human IgG Fc fragment (hFc) of the pCpC vector
Procedure: (§1) The purified immunogen A (4-1BB-hFc), monkey 4-1BB-his, and mouse 4-1BB-his obtained in Example 1 [for the preparation method, see step 1 of Example 1, preparation of immunogen A], of which the extracellular domain of monkey-derived 4-1BB protein (purchased from ACRO biosystems), the extracellular domain of mouse 4-1BB protein (purchased from sino biological) or other immune detection point proteins respectively were diluted with PBS to a final concentration of 1.0 μg/mL, then added with […] per well to 96-well ELISA plate. It was sealed with plastic film and incubated at 4° C. overnight. The next day, the plate was washed twice with the plate-washing solution [PBS containing 0.01% (v/v) Tween20] and blocking solution [PBS containing 0.01% (v/v) Tween 20 and 1% (v/v) BSA] was added and blocked at room temperature for 2 hours. The blocking solution was discarded and 100 μl of the purified 4-1BB antibody obtained in Example 2 was added per well. After incubated at 37° C. for 2 hours, the plate was washed 3 times with a plate-washing solution [PBS containing 0.01% (v/v) Tween20]. A secondary antibody (purchased from Sigma) labeled with HRP (horseradish peroxidase) was added, and after incubated at 37° C. for 2 hours, the plate was washed 3 times with a plate-washing solution [PBS containing 0.01% (v/v) Tween20]. 100 μl of TMB substrate was added per well. After incubated for 30 minutes at room temperature, 100 μl of stop buffer (1.0N HCl) was added per well. The A450 nm values were read using an ELISA plate reader (SpectraMax 384plus, Molecular Device).

[2] = target: T2, human 4-1BB, full length, on transfected cells (human, UniProt Q07011 24-255); experiment: FACS, CHOK1-h4-1BB cells; Ab 0.4 ug/ml
T2 construct: whole, on cells; also called CHOK1-h4-1BB
T2 sequence (Q07011 24-255): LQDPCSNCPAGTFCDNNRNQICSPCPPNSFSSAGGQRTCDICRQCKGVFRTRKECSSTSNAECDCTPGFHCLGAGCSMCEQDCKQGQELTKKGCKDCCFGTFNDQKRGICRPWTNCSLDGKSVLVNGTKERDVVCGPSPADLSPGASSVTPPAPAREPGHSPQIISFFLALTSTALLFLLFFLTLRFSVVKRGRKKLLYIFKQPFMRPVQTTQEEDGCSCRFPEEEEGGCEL
Text: (§2) The pIRES plasmid carrying the full-length gene of monkey-derived […] (the preparation method is the same as the preparation method of the pCpC vector carrying the human-derived IgG Fc fragment (hFc) in “Preparation of immunogen A” of the step (1) in Example 1, in which the database accession number of the amino acid sequence of the extracellular region of monkey 4-1BB protein (Phe19-Thr239) is G7PSE7) was transfected into CHOK1 cell line to obtain CHOK1 stable transfected cell line containing monkey 4-1BB (herein referred to as CHOK1-c4-1BB stable cell line). The CHOK1-h4-1BB stable cell line and the CHOK1-c4-1BB stable cell line were expanded and cultivated to 90% confluence in T-75 cell culture flasks. The medium was exhausted, and washed twice with HBSS buffer (Hanks Balanced Salt Solution, purchased from Invitrogen), and then the cells were treated and collected with enzyme-free cell dissociation solution (Versene solution, purchased from Life Technology). The cells were washed twice with HBSS buffer, and after cell counting, the cells were diluted with HBSS buffer to 2×10⁶ cells per ml, and 1% goat serum blocking solution was added, the percentage being the mass percentage. It was incubated on ice for 30 minutes, and then washed twice with HBSS buffer by centrifugation. The collected cells were suspended in FACS buffer (HBSS containing 1% BSA, the percentage was the mass percentage) to 2×10⁶ cells/mL, and 100 μl per well was added to a 96-well FACS reaction plate. The purified 4-1BB antibody test sample obtained in Example 2 was added, 100 microliters per well and incubated on ice for 2 hours. […] It was washed three times with FACS buffer by centrifugation, and 100 μl of fixative [4% (v/v) paraformaldehyde] per well was added to suspend cells, and washed twice with FACS buffer after 10 minutes by centrifugation. The cells were suspended with 100 microliters of FACS buffer, and the results were detected and analyzed with FACS (FACS Calibur, purchased from BD).

[3] = target: T1, hFc-tagged human 4-1BB extracellular …; experiment: ELISA, coated human 4-1BB-hFc; Ab 0.016 ug/ml
Procedure: as §1

[4] = target: T2, human 4-1BB, full length, on …; experiment: FACS, CHOK1-h4-1BB cells; Ab 0.08 ug/ml
Text: as §2

[5] = target: T3, monkey 4-1BB on CHOK1 cells (monkey); experiment: FACS, CHOK1-c4-1BB cells; Ab 0.08 ug/ml
T3 construct: whole, on cells; also called CHOK1-c4-1BB
Text: as §2

[6] = target: T2, human 4-1BB, full length, on …; experiment: FACS, CHOK1-h4-1BB cells; Ab 2 ug/ml
Text: as §2

[7] = target: T1, hFc-tagged human 4-1BB extracellular …; experiment: ELISA, coated human 4-1BB-hFc; Ab 0.0032 ug/ml
Procedure: as §1

[8] = target: T1, hFc-tagged human 4-1BB extracellular …; experiment: ELISA, coated human 4-1BB-hFc; Ab 0.08 ug/ml
Procedure: as §1

[9] = target: T1, hFc-tagged human 4-1BB extracellular …; experiment: ELISA, coated human 4-1BB-hFc; Ab 10 ug/ml
Procedure: as §1

[10] = target: T2, human 4-1BB, full length, on …; experiment: FACS, CHOK1-h4-1BB cells; Ab 10 ug/ml
Text: as §2

[11] = target: T2, human 4-1BB, full length, on …; experiment: FACS, CHOK1-h4-1BB cells; Ab 0.00013 ug/ml
Text: as §2

[12] = target: T3, monkey 4-1BB on CHOK1 cells; experiment: FACS, CHOK1-c4-1BB cells; Ab 0.4 ug/ml
Text: as §2

Binder	EC50 (read off the curve) [1]	average fluorescence intensity [2]	OD450 nm [3]	average fluorescence intensity [4]	average fluorescence intensity [5]	average fluorescence intensity [6]	OD450 nm [7]	OD450 nm [8]	OD450 nm [9]	average fluorescence intensity [10]	average fluorescence intensity [11]	average fluorescence intensity [12]
52F4G2 (antibody, V domains shown) VH: QVQLQESGPGLVKPSETLSLTCAVSGYSISSGYYWGWIRQPPGKGLEWIGSIFHSGSSYYNPSLKSRVTISVDTSKNQFSLKLRSVTAADTAVYYCARESSGWNCFDYWGQGTLVTVSS VL: DIQMTQSPSTLSASVGDRVTITCRASQTISTWLAWYQQKPGKAPKLLIYKASNLESGVPSRFSGSGSGTEFTLTISSLQPDDFATYYCQQYNSYSITFGQGTRLEIK	~0.007 µg/mL	584 MFI	2.51 OD450 nm	410 MFI	130 MFI	600 MFI	0.89 OD450 nm	3.08 OD450 nm	3.06 OD450 nm	615 MFI	4.8 MFI	469 MFI
289B6G6 (antibody, V domains shown) VH: QVQLQESGPGLVRPSETLSLTCAVSGYSISSGYYWGWIRQPPGKGLEWIGSIFHSGNTYYNPSLKSRVIVSGDTSKNQFSLKLSSVTAADTAVYYCTRESSGFNVFDIWGQGTMVTVSS VL: not shown	~0.02 µg/mL	1520 MFI	1.47 OD450 nm	453 MFI	179 MFI	1920 MFI	0.34 OD450 nm	2.73 OD450 nm	2.8 OD450 nm	2280 MFI	4 MFI	466 MFI
118F3A2 (antibody, V domains shown) VH: QVQLQQWGAGLLKPSETLSLTCGVYGGSFSTNYWSWIRQSPGKGLEWIGEINHSGNTEYNPSLKSRLTISIDTSKNQFSLKLTSVTAADTAVYYCARMGYHSPSFDFWGQGVLVTVSS VL: KIVMTQSPATLSVSPGERATLPCRVSQGIGSNLAWYQQKPGQAPRLLIYGASTRATGVPARFSGSGSGSEFTLTISSLQSEDLALYYCQQYNNWPLTFGGGTKVEIK	~0.03 µg/mL	508 MFI	0.99 OD450 nm	346 MFI	114 MFI	540 MFI	0.54 OD450 nm	2.26 OD450 nm	2.73 OD450 nm	527 MFI	4.4 MFI	408 MFI
170D7F2 (antibody, V domains shown) VH: QVQLVQSGAEVKKPGASVKVSCKASGYTFTSYDINWVRQATGQGLEWMGWMNPNSGNTGYAQKFQGRVTMTRNTSISTAYMELSSLRSEDTAVYYCARETGPFDYWGQGTLVTVSS VL: DIQMTQSPSSLSASVGDRVTITCRASQRINNYLNWYQQKPGKAPKLLIYGASSLQSGVPSRFSGSGSGTDFTLTISSLQPEDFATYYCQQSYSTPFTFGPGTKVDIK	~0.02 µg/mL	540 MFI	1.64 OD450 nm	183 MFI	96.3 MFI	736 MFI	0.48 OD450 nm	3.24 OD450 nm	3.44 OD450 nm	735 MFI	2.6 MFI	304 MFI
182A5B3 (antibody, V domains shown) VH: QVQLVQSGAEVKKPGASVKVSCKASGYTFTSYDINWVRQATGQGLEWMGWMNPNSGNTGYVQKFQGRVTMTRNTSISTAYMELSSLRSEDTAVYYCARETGPFDYWGQGTLVTVSS VL: not shown	~0.02 µg/mL	530 MFI	1.48 OD450 nm	200 MFI	118 MFI	760 MFI	0.38 OD450 nm	3.29 OD450 nm	3.5 OD450 nm	769 MFI	2.6 MFI	373 MFI
172E3E3 (antibody, V domains shown) VH: QVQLQESGPGLVKPSGTLSLTCAVSGGSISSSNWWSWVRQPPGKGLEWIGEIYHSGSTNYNPSLKSRVTISVDKSKNQLSLNLSSVTAADTAVYYCARQGGVAGTLYWYFDLWGRGTLVTVSS VL: DIVMTQSPLSLPVTPGEPASISCRSSQGLLHSNGYNYLDWYLQKPGQSPQLLIYLGSNRASGVPDRFIGSGSGTDFTLKIRRVEAEDVGVYYCMQVLQTPWTFGQGTKVEIK	~0.02 µg/mL	413 MFI	1.65 OD450 nm	172 MFI	47 MFI	486 MFI	0.51 OD450 nm	3.18 OD450 nm	3.43 OD450 nm	489 MFI	13.8 MFI	159 MFI
23G3B8 (antibody, V domains shown) VH: QVQLQESGPGLVKPSETLSLTCAVSAYSISSGYYWGWIRQPPGKGLEWIGSIFHSGSNYYNPSLKSRVTISVDPSKNQFSLKLSSVTVADTAVYYCARESSGYNCFDYWGQGTLVTVSS VL: not shown	~0.02 µg/mL	541 MFI	1.1 OD450 nm	399 MFI	154 MFI	619 MFI	0.28 OD450 nm	2.53 OD450 nm	2.78 OD450 nm		4.6 MFI	392 MFI
11H10C9 (antibody, V domains shown) VH: QVQLVESGGGVVQPGRSLRLSCAASGFTFSSYAMHWVRQAPGKGLEWVAIIWYDGSNQYYADSVKGRFTISRDNSMNTLYLQMNSLRAEDTAVYYCARVEQWLVSYFDFWGQGTLVTVSS VL: EIVMTQSPATLSVSPGERATLSCRASQSVSSNLAWYQQKPGQVPRLLIYGASTRATGIPARFSGSGSGTEFTLTISSLQSEDFAVYYCQQYNNWPTFGGGTKVEIK	~0.02 µg/mL	431 MFI	1.55 OD450 nm	200 MFI	82.6 MFI	520 MFI	0.49 OD450 nm	3.27 OD450 nm	3.55 OD450 nm	498 MFI	3.5 MFI	298 MFI

— US20200347144A1 (SHANGHAI HYAMAB BIOTECH, published 2020)
